The series deals with the molecule itself. The series is described as follows: SEC-MALS. On the technique in general: Size exclusion chromatography separates by hydrodynamic size, large species first.

B1: HsaD from Mycobacterium tuberculosis H37Rv (enzyme)
chain: MTATEELTFESTSRFAEVDVDGPLKLHYHEAGVGNDQTVVLLHGGGPGAASWTNFSRNIAVLARHFHVLAVDQPGYGHSDKRAEHGQFNRYAAMALKGLFDQLGLGRVPLVGNSLGGGTAVRFALDYPARAGRLVLMGPGGLSINLFAPDPTEGVKRLSKFSVAPTRENLEAFLRVMVYDKNLITPELVDQRFALASTPESLTATRAMGKSFAGADFEAGMMWREVYRLRQPVLLIWGREDRVNPLDGALVALKTIPRAQLHVFGQCGHWVQVEKFDEFNKLTIEFLGGGR
On to B1, for which the “stoichiometry N” value turned out to be 4.

As a reminder, the stoichiometry N is a count of units in the complex or per binding partner.
